Key:
[1] = tested on: MS2 coat protein; test: apparent KD of MS2 coat protein, switch ON state; designed switch direction (-1 OFF switch, 1 ON switch): -1; higher = weaker reporter binding; details: FMN input: 0 or 200 uM; Eterna round: R93 (includes R88 designs)
Procedure, shortened: (§1)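 Illumina sequencing clusters served as templates for on-chip transcription of the designed RNA switches. SNAP-549-labelled MS2 coat protein was then titrated in twofold steps from 0.7 or 1.5 nM to 3 µM, allowing 0.8–1.5 h per step at first and 10–20 min per step later. The buffer held 100 mM Tris-HCl pH 7.5, 80 mM KCl and 4 mM MgCl2, without or with constant ligand. Apparent KD is the median per design of normalised cluster binding-curve fits.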

[2] = tested on: MS2 coat protein; test: apparent KD of MS2 coat protein, switch OFF state (with FMN for OFF switches, without FMN for ON switches); designed switch direction (-1 OFF switch, 1 ON switch): -1; higher = weaker reporter binding; details: FMN input: 0 or 200 uM; Eterna round: R93 (includes R88 designs)
Procedure, shortened: as §1

[3] = tested on: MS2 coat protein; test: apparent KD of MS2 coat protein; designed switch direction (-1 OFF switch, 1 ON switch): 1; higher = weaker reporter binding
Procedure, shortened: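 Each step of the titration lasted 0.8–1.5 h at the lowest concentration and 10–20 min at the highest. The protein, SNAP-549-labelled MS2 coat protein, went from 0.7 or 1.5 nM doubling to 3 µM over RNA switches transcribed on Illumina chips by stalled E. coli RNA polymerase. Normalised cluster fluorescence was curve-fitted, and the per-design median over clusters is given as apparent KD.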

[4] = Eterna round: R95, input ligand: microRNA oligo, concentration not stated
[5] = input ligand: microRNA oligo, concentration not stated
[6] = Eterna round: R95, input ligand: FMN 200 uM
[7] = Eterna round: R95, input ligand: none

AUAAAUCGAGGAUAUACAUGAGGAUCACCCAUGUAAAUAAAUAAAUAAUCCUCAGGAAGUAGAAGGCGAAAUAA [JR_Exc003_Sub019]
apparent KD of MS2 coat protein [1]: 15.1 nM
apparent KD of MS2 coat protein [2]: 27.2 nM

AAAAAACAUGAGGAUCACCCAUGUGAGGAUAUUGGUAUUGAGGGUAUAAUCUCAAUAGCGAGAAGGCGCAUAAA [Brourd 613 Mod 14 - Jieux - Exclusion 1]
apparent KD of MS2 coat protein [1]: 31.7 nM
apparent KD of MS2 coat protein [2]: 45.3 nM

AAAACGUGAGGAUAUGCACCAAAAAAGGUAAAACGGGUACGACAUGAGGAUCACCCAUGUAGAAGGCACGAAAA [Frodo Flailing 10 - Jieux - Exclusion 2]
apparent KD of MS2 coat protein [1]: 46 nM
apparent KD of MS2 coat protein [2]: 107 nM

AAAGGUACAGGAUAUGCGUGGAAAAAGUGUAUUCACCAACGACAUGAGGAUCACCCAUGUAGAAGGGUACCAAA [Mod of wbt1 from round 1]
apparent KD of MS2 coat protein [1]: 25.9 nM
apparent KD of MS2 coat protein [2]: 31.8 nM

GAAAGGUCAGGAUAUACGUUAUGCUAGUGCUCGUACUAUAAGUAGAAGGGACAUGAGGAUCACCCAUGUGAUAA [Kawasakiqro]
apparent KD of MS2 coat protein [1]: 45.2 nM
apparent KD of MS2 coat protein [2]: 58.3 nM

UACAGACAUGAGGAUCACCCAUGUGAGGAUAUUCAUAACGAUAUUACAAGUAUGACAGGAAGAAGGCACAGCAA [JR_Exc001_Sub010]
apparent KD of MS2 coat protein [1]: 45 nM
apparent KD of MS2 coat protein [2]: 47.5 nM

GAUCAGCUAGGAUAUACAUUAAUCCGAUAUGAGAAGAAAGAACAUGAGGAUCACCCAUGUAGAAGGAGCCAGUA [Ridigeer]
apparent KD of MS2 coat protein [1]: 40.2 nM
apparent KD of MS2 coat protein [2]: 39.3 nM

GUGUUACAUGAGGAUCACCCAUGUUGUUGUAGAUAAGGAUAUAUGGUAACGAGAGAAAUAAUAGAAGGUAUUAGGC [JR_SS1_Sub061] (puzzle: Same State 1)
apparent KD of MS2 coat protein [3, 4]: 34.7 nM

AUACAUAUCAGAGGAUAUCACGUCGAUUAGACGUGAGAAGGCUGAUCACACAUGAAUAUUAAUACAUGAGGAUCACCCAUGUAU [SSNG1/14-A2] (Eterna round: R96, puzzle: Same State NG 1)
apparent KD of MS2 coat protein ([3]; input ligand: FMN 200 uM): 20.6 nM
apparent KD of MS2 coat protein [3, 5]: 14.8 nM
apparent KD of MS2 coat protein ([3]; input ligand: none): 18.8 nM

AAAAUGGUAUGUUACAUGAGGAUCACCCAUGUACUCUCCUCUGAGGAUAUGGGAAUGUUGAAAAACCAGAAGGCAGACAUCCAA [AK SSNG3-V2-22] (Eterna round: R96, puzzle: Same State NG 3)
apparent KD of MS2 coat protein ([3]; input ligand: FMN 200 uM): 139 nM
apparent KD of MS2 coat protein [3, 5]: 177 nM
apparent KD of MS2 coat protein ([3]; input ligand: none): 192 nM

UUUCCAUAGAUAGGAUAUCAGUUUACAUGAGGAUCACCCAUGUUCUCUUUGGUUUUAAUUUUUUCUGAGAAGGAUCUUGAUGAA [JR_SSNG2_Sub001] (Eterna round: R96, puzzle: Same State NG 2)
apparent KD of MS2 coat protein ([3]; input ligand: FMN 200 uM): 20.6 nM
apparent KD of MS2 coat protein [3, 5]: 17.7 nM
apparent KD of MS2 coat protein ([3]; input ligand: none): 25.1 nM

GGAGCCGGCACUGAGGAUAUUCAUAUUAAAACAUGAGGAUCACCCAUGUAGGCCAGAAGGCCUUGGGAGAAGGCAGGUCGGCUCA [Mat - Same State 2 - Mod of UCT - D59] (puzzle: Same State 2)
apparent KD of MS2 coat protein [3, 6]: 20.5 nM
apparent KD of MS2 coat protein [3, 4]: 235 nM
apparent KD of MS2 coat protein [3, 7]: 338 nM

GCUCGUGGUAUUGUCUACAUGAGGAUCACCCAUGUGGGUGCGGAGGAUAUCUACGUGUCUCAUGUAGAGAAGGUCGUCACGAGC [SameState NG3 #100] (Eterna round: R96, puzzle: Same State NG 3)
apparent KD of MS2 coat protein ([3]; input ligand: FMN 200 uM): 119 nM
apparent KD of MS2 coat protein [3, 5]: 119 nM
apparent KD of MS2 coat protein ([3]; input ligand: none): 102 nM

AAAAAACAUGAGGAUCACCCAUGUCAAAAGACGUGAGGAUAUGUACAGACUUCGGUCUGUACAGAAGGCACGAAAA [SS1 - 1037] (Eterna round: R96, puzzle: Same State 1)
apparent KD of MS2 coat protein ([3]; input ligand: FMN 200 uM): 17.6 nM
apparent KD of MS2 coat protein [3, 5]: 19.1 nM
apparent KD of MS2 coat protein ([3]; input ligand: none): 26.9 nM

CGGGUACAUGAGGAUCACCCAUGUGGGAGGGAUGCAGGAUAUGUGGGAAAAGGGUAUGAAACAGAAGGGCAAGGAG [JR_SS!_Sub013] (puzzle: Same State 1)
apparent KD of MS2 coat protein [3, 6]: 29.6 nM
apparent KD of MS2 coat protein [3, 4]: 33.2 nM
apparent KD of MS2 coat protein [3, 7]: 35.1 nM

GUUACAUGAGGAUCACCCAUGUAUGUGUGGGAGUAAGUGUCUUAGGAUAUCUAGUAUUUAACUUAAGAGAAGGAAGAUUGUUGU [JMF's solution 63] (Eterna round: R96, puzzle: Same State NG 3)
apparent KD of MS2 coat protein ([3]; input ligand: FMN 200 uM): 142 nM
apparent KD of MS2 coat protein [3, 5]: 95.8 nM
apparent KD of MS2 coat protein ([3]; input ligand: none): 105 nM

GGAAUAUUUACAGGAUAUGUUUUGUUAAGUCGAGCAGAAGGGUAGAUGUCUUACACGGUUUGUUACAUGAGGAUCACCCAUGUC [SameState NG1 #16] (Eterna round: R96, puzzle: Same State NG 1)
apparent KD of MS2 coat protein ([3]; input ligand: FMN 200 uM): 26.4 nM
apparent KD of MS2 coat protein [3, 5]: 80.3 nM
apparent KD of MS2 coat protein ([3]; input ligand: none): 126 nM

GUUCCACAUGAGGAUCACCCAUGUCACGAACACGCAGGAUAUUGCCUGAGUUUGGACAGGUAAGAAGGGUGAGAGA [Dibeante] (puzzle: Same State 1)
apparent KD of MS2 coat protein [3, 6]: 64.3 nM
apparent KD of MS2 coat protein [3, 4]: 31.9 nM
apparent KD of MS2 coat protein [3, 7]: 28.9 nM

GGUAUUGACACAGGAUAUGCUUACGAAACGUAAGCAGAAGGGUGAACAUGAGGAUCACCCAUGUAGGUACCAGGGCGUGAGCCC [JL SSNG1 1.75] (Eterna round: R96, puzzle: Same State NG 1)
apparent KD of MS2 coat protein ([3]; input ligand: FMN 200 uM): 151 nM
apparent KD of MS2 coat protein [3, 5]: 694 nM
apparent KD of MS2 coat protein ([3]; input ligand: none): 1470 nM

CGGCGUUGUCGAGAGGAUAUGCGGUGAUGGACAUGAGGAUCACCCAUGUUAGCGAUAGCAUUACGGUAGAAGGCUCUACAGCUGC [Soteed Omei mod 7] (puzzle: Same State 2)
apparent KD of MS2 coat protein [3, 4]: 42.5 nM

ACAUGAGAGAAAGGAUAUCUUGUACCUACAUGUGACAUGAGGAUCACCCAUGUGGUAAGUAUGACGGAGAAGGUUCAGAUAUGU [Equivalance 72 - Jieux - Same State NG 2] (Eterna round: R96, puzzle: Same State NG 2)
apparent KD of MS2 coat protein ([3]; input ligand: FMN 200 uM): 77.1 nM
apparent KD of MS2 coat protein [3, 5]: 125 nM
apparent KD of MS2 coat protein ([3]; input ligand: none): 154 nM

GCGGAGACGUCAGGAUAUCCAUGGAAGACACAUGAGGAUCACCCAUGUGGGAGGGAAACCAGGAGGGAGAAGGGACGGAAACGC [ssng2 v2 d] (Eterna round: R96, puzzle: Same State NG 2)
apparent KD of MS2 coat protein ([3]; input ligand: FMN 200 uM): 10 nM
apparent KD of MS2 coat protein [3, 5]: 9.63 nM
apparent KD of MS2 coat protein ([3]; input ligand: none): 14.1 nM

GUUACAUGAGGAUCACCCAUGUAUGUGUGGGAGUAAGUGUCUUAGGAUAUCUAUUAGUUAAAUUAAGAGAAGGAAGAUUGUUGU [JMF's solution 15] (Eterna round: R96, puzzle: Same State NG 3)
apparent KD of MS2 coat protein [3, 5]: 91.4 nM

AUUGCUUACGCAGGAUAUGAUGCGAAAAUUGCGUCAGAAGGGUGAAGUAUCUCAUUGCAACAGGACAUGAGGAUCACCCAUGUC [SameState NG1 #99] (Eterna round: R96, puzzle: Same State NG 1)
apparent KD of MS2 coat protein ([3]; input ligand: FMN 200 uM): 150 nM
apparent KD of MS2 coat protein [3, 5]: 303 nM
apparent KD of MS2 coat protein ([3]; input ligand: none): 455 nM

GAAGGAUGAGCGUAGGAUAUAGGAGGAGUGACAUGAGGAUCACCCAUGUAGUAGGAGGGAGGGUACUAGAAGGACGAGGAAGAGG [JR_SS2_Sub068] (puzzle: Same State 2)
apparent KD of MS2 coat protein [3, 6]: 67 nM
apparent KD of MS2 coat protein [3, 4]: 32.2 nM
apparent KD of MS2 coat protein [3, 7]: 57.4 nM

AGUCCAGCCAAAGCUGGACAAAAGCAUGUACAUGAGGAUCACCCAUGUCAUGUACAAGCUUUUUGCUCGUCUUAAUA [Mat - hsa-mir-208a - Mod of JL - D38] (puzzle: Sensor for hsa-mir-208a)
apparent KD of MS2 coat protein [3, 6]: 464 nM
apparent KD of MS2 coat protein [3, 4]: 16 nM
apparent KD of MS2 coat protein [3, 7]: 611 nM

— the supplement of paper PMC9170038
